Source: the Immune Epitope Database (IEDB)
pIC50, pKd: −log10 of the molar value.

Assays:
[1] = target: HLA-A*24:02; assay: IEDB peptide-MHC binding, purified MHC/competitive/radioactivity; filed as Kd, often an IC50 or EC50 that approximates it; ≥ and ≤ were set here for values at or beyond the usual limits of such assays
[2] = target: HLA-A*23:01; assay: as above
[3] = target: HLA-A*29:02; assay: as above
[4] = target: HLA-A*30:01; assay: as above
[5] = target: HLA-A*01:01; assay: as above; conditions: source organism: SARS coronavirus Tor2
[6] = target: HLA-A*26:01; assay: as above; conditions: source organism: SARS coronavirus Tor2
[7] = target: HLA-A*30:02; assay: as above; conditions: source organism: SARS coronavirus Tor2
[8] = target: HLA-B*08:01; assay: as above
[9] = target: HLA-A*02:01; assay: IEDB peptide-MHC binding, purified MHC/competitive/fluorescence; ≥ and ≤ were set here for values at or beyond the usual limits of such assays
[10] = target: HLA-A*01:01; assay: IEDB peptide-MHC binding, purified MHC/direct/fluorescence; filed as Kd, often an IC50 or EC50 that approximates it; ≥ and ≤ were set here for values at or beyond the usual limits of such assays
[11] = target: HLA-A*69:01; assay: as above; conditions: source organism: Treponema pallidum
[12] = target: HLA-A*02:01; assay: as above; conditions: source organism: Treponema pallidum
[13] = target: HLA-A*68:01; assay: IEDB peptide-MHC binding, purified MHC/competitive/radioactivity; filed as Kd, often an IC50 or EC50 that approximates it; ≥ and ≤ were set here for values at or beyond the usual limits of such assays; conditions: source organism: Vaccinia virus WR
[14] = target: HLA-A*11:01; assay: as above
[15] = target: HLA-A*03:01; assay: as above; conditions: source organism: Vaccinia virus WR
[16] = target: HLA-A*31:01; assay: as above; conditions: source organism: Vaccinia virus WR
[17] = target: HLA-A*33:01; assay: as above; conditions: source organism: Vaccinia virus WR
[18] = target: HLA-A*11:01; assay: IEDB peptide-MHC binding, purified MHC/direct/fluorescence; filed as Kd, often an IC50 or EC50 that approximates it; ≥ and ≤ were set here for values at or beyond the usual limits of such assays; conditions: source organism: Influenza A virus (A/tiger/Thailand/CU-T4/04(H5N1))
[19] = target: HLA-A*03:01; assay: as above; conditions: source organism: Influenza A virus (A/tiger/Thailand/CU-T4/04(H5N1))
[20] = source organism: Mammarenavirus brazilense
[21] = source organism: Dengue virus 3 Martinique/1243/1999
[22] = source organism: SARS coronavirus Tor2
[23] = source organism: Dengue virus 1 Brazil/97-11/1997
[24] = source organism: Vaccinia virus WR
[25] = source organism: Dengue virus 4 Philippines/H241/1956
[26] = source organism: Zaire ebolavirus
[27] = source organism: Sudan ebolavirus

QMISSIDRFF
pKd [1, 20]: 5.33
pKd [2, 20]: 6.12
pKd [3, 20]: 5.73

TFKNAHAKK
pKd [4, 21]: 6.95

MSFLEKDAPY
pKd [1, 22]: ≤ 4.15
pKd [5]: 7.19
pKd [2, 22]: ≤ 4.15
pKd [3, 22]: 6.65
pKd [6]: 6.58
pKd [7]: 8.51

NSGPDDQIGY
pKd [1, 22]: ≤ 4.47
pKd [5]: 6.00
pKd [2, 22]: ≤ 4.15
pKd [3, 22]: 5.13
pKd [6]: 5.07
pKd [7]: 5.17

WTMKIGIGIL
pKd [8, 23]: 6.47

KTTFSLHYA
pKd ([4]; source organism: Dengue virus 1 Singapore/S275/1990): 7.84

YKKLKFRFI
pKd [8, 24]: 6.71

VMKIGIGVLL
pKd [8, 21]: 6.29

SLNTKFKTL
pKd [8, 24]: 8.06

KTHTLWSNG
pKd [4, 25]: 7.09

SIKRNYPYLF
pKd [1, 20]: 5.99
pKd [2, 20]: 6.12
pKd [3, 20]: 5.63

FGTNETEYL
pIC50 [9, 26]: 4.56

TAQEQHNAA
pIC50 [9, 27]: 4.56

KIRPTRSVY
pKd [4, 24]: 8.14

GVSTDIPSA
pIC50 [9, 27]: 5.68

RARFIGGYI
pKd [4, 24]: 9.58

IIGTNGNHM
pIC50 [9, 27]: ≤ 3.84

RYRSGFWII
pKd [4, 24]: 8.06

VYPMSIPATL
pKd [1, 23]: 7.11
pKd [2, 23]: 8.19

SPKRLATAI
pKd [8, 21]: 7.85

NYKERMVTF
pKd [1, 25]: 7.71
pKd [2, 25]: 7.00

SISIKLTDS
pIC50 ([9]; source organism: Vaccinia virus Copenhagen): ≤ 3.97

NPGARNARL
pKd [8, 24]: 8.21

LLMLCLHHA
pIC50 [9, 26]: 6.39

NPDIVIYQY
pKd ([10]; source organism: Human immunodeficiency virus 1): ≤ 4.68

HLKHHKQCV
pKd [8, 24]: 8.35

DYLVSTQEF
pKd [1, 22]: ≤ 4.36
pKd [5]: ≤ 4.11
pKd [2, 22]: 4.73
pKd [3, 22]: 6.59
pKd [6]: 4.84
pKd [7]: 5.47

GKLGLITNT
pIC50 [9, 26]: ≤ 3.64

RTYSSSIIA
pKd [4, 24]: 7.30

GIQRTVFFVL
pKd [8, 25]: 5.18

SYATHHDKF
pKd [1, 22]: ≤ 3.98
pKd [5]: ≤ 4.40
pKd [2, 22]: ≤ 4.04
pKd [3, 22]: ≤ 4.65
pKd [6]: ≤ 4.11
pKd [7]: ≤ 4.07

GLLKKFEFL
pKd [8, 24]: 7.33

YSELRPDTRY
pKd [1, 22]: ≤ 4.44
pKd [5]: 8.21
pKd [2, 22]: ≤ 4.15
pKd [3, 22]: 6.85
pKd [6]: 4.92
pKd [7]: 6.78

NQNALVCGL
pIC50 [9, 27]: ≤ 3.91

IVDYVTAYG
pKd [11]: 5.79
pKd ([10]; source organism: Treponema pallidum): 5.60
pKd [12]: 4.76

YTFFSYLMK
pKd [13]: 9.09
pKd [14, 24]: 9.25
pKd [15]: 8.01
pKd [16]: 5.40
pKd [17]: 5.52
pKd [4, 24]: 6.33

SAKYINSSI
pKd [8, 24]: 6.86

NYFKKVDGI
pKd [1, 22]: ≤ 4.69
pKd [5]: ≤ 4.29
pKd [2, 22]: 4.94
pKd [3, 22]: 5.60
pKd [6]: ≤ 4.11
pKd [7]: 4.93

KNISGQSPA
pIC50 [9, 26]: ≤ 3.64

LAIPPTAGIL
pKd [8, 23]: 5.37

MVLLTMKEK
pKd [14, 23]: 6.44
pKd [4, 23]: 5.56

TWKLARASF
pKd [1, 23]: 6.65
pKd [2, 23]: 6.66

SSAMVQVHS
pIC50 [9, 26]: ≤ 3.23

MFKKRNLTI
pKd [1, 21]: 6.80
pKd [2, 21]: 6.32
pKd [8, 21]: 7.80
pKd [4, 21]: 6.84

VMKRYSAPFE
pKd [4, 25]: 5.23

TVRDGQLEV
pKd [4, 24]: 7.89

MRKTDWLPM
pKd [8, 21]: 7.46

RARVSQGAG
pKd [4, 23]: 6.71

MQKCYFSYK
pKd [4, 24]: 9.28

NSPVFNYNK
pKd [18]: 6.94
pKd [19]: ≤ 4.70

TMGVLCLAIL
pKd [8, 21]: 5.19

SLLRNDVPM
pKd [8, 21]: 7.32

KRTSFFLWV
pIC50 [9, 26]: ≤ 4.10
